Consider four molecules from patent US20120021999A1 (published 2012).

Ends that are not written are not given here. * marks the point of attachment. Biotin = O=C1N[C@H]2[C@H](CS[C@H]2CCCCC(=O)*)N1

The target of assay [1] is T1, caspase-9 from IL-2-stimulated TS1αβ cellular extracts (mouse, UniProt Q8C3Q9 1-454, limits assumed).
T1 construct: Endogenous protein in a cell lysate
T1 sequence (looked up): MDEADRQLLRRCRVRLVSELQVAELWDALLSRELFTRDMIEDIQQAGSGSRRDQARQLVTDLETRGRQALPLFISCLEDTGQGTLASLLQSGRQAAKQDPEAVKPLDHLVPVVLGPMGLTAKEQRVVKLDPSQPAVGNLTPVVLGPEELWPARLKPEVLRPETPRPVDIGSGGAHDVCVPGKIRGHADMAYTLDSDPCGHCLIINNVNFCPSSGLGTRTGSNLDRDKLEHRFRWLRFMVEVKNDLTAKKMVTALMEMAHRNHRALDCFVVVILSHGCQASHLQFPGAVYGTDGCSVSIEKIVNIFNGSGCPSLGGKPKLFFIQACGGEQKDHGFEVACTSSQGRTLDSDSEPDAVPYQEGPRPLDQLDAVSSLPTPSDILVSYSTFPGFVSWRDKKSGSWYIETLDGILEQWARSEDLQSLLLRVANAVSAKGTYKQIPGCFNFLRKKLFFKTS
The assay can be described thus: pull-down of biotinylated peptide on streptavidin beads from TS1αβ cell extracts, immunoblot.

In assay [2] the target is T2, PP2Ac from IL-2-stimulated TS1αβ cellular extracts (mouse, UniProt P63330 1-309).
T2 construct: Endogenous protein in a cell lysate, detected by immunoblot with anti-PP2Ac antibody
T2 sequence (P63330 whole entry): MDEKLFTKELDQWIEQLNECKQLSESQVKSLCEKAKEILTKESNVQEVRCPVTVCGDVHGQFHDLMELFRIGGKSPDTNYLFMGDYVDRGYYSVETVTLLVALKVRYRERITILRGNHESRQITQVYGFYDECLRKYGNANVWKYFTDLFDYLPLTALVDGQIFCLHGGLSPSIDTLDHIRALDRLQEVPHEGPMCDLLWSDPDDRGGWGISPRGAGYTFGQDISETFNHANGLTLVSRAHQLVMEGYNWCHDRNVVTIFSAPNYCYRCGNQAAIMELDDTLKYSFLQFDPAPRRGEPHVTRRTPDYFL
Put plainly: pull-down of biotinylated peptide on streptavidin beads from TS1αβ cell extracts, anti-PP2Ac immunoblot. As to the method: Control streptavidin-sepharose alone or conjugated to DPT-C9, DPT-C9r, DPT-sh1 or C9 peptides were incubated with IL-2-stimulated cellular extracts form TS1αβ cells (10⁷ cells/point). Identification of unbound proteins in lysates or bound proteins in pull-down experiments was performed by immunoblotting using antibodies against PP2Ac or PP1c.
Biotinylated peptides were preincubated 2 h at 0-100 μM (in final concentration with lysate) at room temperature with 30 μl of streptavidin-coated immunomagnetic beads (Calbiochem, San Diego Calif.). During this time, 10⁷ exponentially growing TS1αβ cells were first washed twice with PBS and then lysed 10 minutes on ice in 400 μl of lysis buffer (50 mM Tris pH7.4, 150 mM NaCl, 20% glycerol, 1% NP-40, 10 mM EDTA, 1 mM PhenylMethylSulfonyl Fluoride, 10 mM NaF, 1 mM orthovanadate, “complete, EDTA-free” protease inhibitor cocktail from Roche).
Lysates were clarified at 13000 g for 10 minutes at 4° C. and were incubated with biotinylated peptides associated with the streptavidin-coated immunomagnetic beads 2 h at 4° C. Biotinylated peptides were pulled down with streptavidin beads and washed two times in 700 μl of lysis buffer on ice. Bound proteins and unbound lysates were then analyzed by SDS-PAGE and Western Blotting using PP1c or PP2Ac antibodies.
(In western blotting, separated proteins are transferred to a membrane and probed.)

B1: DPT-C9 (peptide)
peptide: Biotin-VKKKKIKREIKIYIETLDGILEQWARSEDL
notes: Biotinylated, held on streptavidin beads in the pull-down
Turning to B1, the binding result in assay [1] is given as “no binding”.

B2: C9 (peptide)
peptide: Biotin-YIETLDGILEQWARSEDL
notes: Synthetic NH2-biotinylated peptide, held on streptavidin beads in the pull-down
For B2, the binding result in assay [1] is “no binding”.

B3: DPT-C9r (peptide)
peptide: Biotin-VKKKKIKREIKILDESRAWQELIGDLTEIY
notes: as for B1
In the case of B3, the binding result in assay [2] was “no binding”.

B4: DPT-sh1 (peptide)
peptide: Biotin-VKKKKIKREIKI
notes: Penetrating shuttle peptide; origin printed as CK2alpha (human); Biotinylated, held on streptavidin beads in the pull-down; also called shuttle
In the case of B4, in assay [2], the binding result was “no binding”.
